From article PMC10902388 (Nature Communications, 2024)

B1: MBP-16E6(4C4S) F76A (natural protein)
chain: MHQKRTAMFQDPQERPRKLPQLCTELQTTIHDIILECVYCKQQLLRREVYDFAFRDLCIVYRDGNPYAVCDKCLKAYSKISEYRHYSYSLYGTTLEQQYNKPLSDLLIRCINCQKPLSPEEKQRHLDKKQRFHNIRGRWTGRCMSCSRSSRTRRETQL
notes: Mutant of m2; source: E. coli BL21(DE3), purified (MBPTrap, SEC); not shown: MBP, N-terminal, kept
B2: MBP-16E6(4C4S) S89A (natural protein)
chain: MHQKRTAMFQDPQERPRKLPQLCTELQTTIHDIILECVYCKQQLLRREVYDFAFRDLCIVYRDGNPYAVCDKCLKFYSKISEYRHYSYALYGTTLEQQYNKPLSDLLIRCINCQKPLSPEEKQRHLDKKQRFHNIRGRWTGRCMSCSRSSRTRRETQL
notes: as for B1
B3: MBP-16E6(4C4S) R84E (natural protein)
chain: MHQKRTAMFQDPQERPRKLPQLCTELQTTIHDIILECVYCKQQLLRREVYDFAFRDLCIVYRDGNPYAVCDKCLKFYSKISEYEHYSYSLYGTTLEQQYNKPLSDLLIRCINCQKPLSPEEKQRHLDKKQRFHNIRGRWTGRCMSCSRSSRTRRETQL
notes: as for B1
B4: MBP-16E6(4C4S) Y77A (natural protein)
chain: MHQKRTAMFQDPQERPRKLPQLCTELQTTIHDIILECVYCKQQLLRREVYDFAFRDLCIVYRDGNPYAVCDKCLKFASKISEYRHYSYSLYGTTLEQQYNKPLSDLLIRCINCQKPLSPEEKQRHLDKKQRFHNIRGRWTGRCMSCSRSSRTRRETQL
notes: as for B1
B5: MBP-16E6(4C4S) R84A (natural protein)
chain: MHQKRTAMFQDPQERPRKLPQLCTELQTTIHDIILECVYCKQQLLRREVYDFAFRDLCIVYRDGNPYAVCDKCLKFYSKISEYAHYSYSLYGTTLEQQYNKPLSDLLIRCINCQKPLSPEEKQRHLDKKQRFHNIRGRWTGRCMSCSRSSRTRRETQL
notes: as for B1
B6: MBP-16E6(4C4S) Y88A (natural protein)
chain: MHQKRTAMFQDPQERPRKLPQLCTELQTTIHDIILECVYCKQQLLRREVYDFAFRDLCIVYRDGNPYAVCDKCLKFYSKISEYRHYSASLYGTTLEQQYNKPLSDLLIRCINCQKPLSPEEKQRHLDKKQRFHNIRGRWTGRCMSCSRSSRTRRETQL
notes: as for B1
B7: MBP-16E6(4C4S) R62A (natural protein)
chain: MHQKRTAMFQDPQERPRKLPQLCTELQTTIHDIILECVYCKQQLLRREVYDFAFRDLCIVYADGNPYAVCDKCLKFYSKISEYRHYSYSLYGTTLEQQYNKPLSDLLIRCINCQKPLSPEEKQRHLDKKQRFHNIRGRWTGRCMSCSRSSRTRRETQL
notes: as for B1
B8: MBP-16E6(4C4S) L57A (natural protein)
chain: MHQKRTAMFQDPQERPRKLPQLCTELQTTIHDIILECVYCKQQLLRREVYDFAFRDACIVYRDGNPYAVCDKCLKFYSKISEYRHYSYSLYGTTLEQQYNKPLSDLLIRCINCQKPLSPEEKQRHLDKKQRFHNIRGRWTGRCMSCSRSSRTRRETQL
B9: MBP-16E6(4C4S) Y86A (natural protein)
chain: MHQKRTAMFQDPQERPRKLPQLCTELQTTIHDIILECVYCKQQLLRREVYDFAFRDLCIVYRDGNPYAVCDKCLKFYSKISEYRHASYSLYGTTLEQQYNKPLSDLLIRCINCQKPLSPEEKQRHLDKKQRFHNIRGRWTGRCMSCSRSSRTRRETQL
notes: as for B1

Key:
[1] = biological target: T1, full-length human E6AP (C-terminal TEV-6xHis-Avi) (human, UniProt Q05086 1-875, biotin on the Avi tag (BirA biotin-protein ligase) in the SPR experiments); test: cell-based or functional assay
T1 sequence (Q05086 whole entry): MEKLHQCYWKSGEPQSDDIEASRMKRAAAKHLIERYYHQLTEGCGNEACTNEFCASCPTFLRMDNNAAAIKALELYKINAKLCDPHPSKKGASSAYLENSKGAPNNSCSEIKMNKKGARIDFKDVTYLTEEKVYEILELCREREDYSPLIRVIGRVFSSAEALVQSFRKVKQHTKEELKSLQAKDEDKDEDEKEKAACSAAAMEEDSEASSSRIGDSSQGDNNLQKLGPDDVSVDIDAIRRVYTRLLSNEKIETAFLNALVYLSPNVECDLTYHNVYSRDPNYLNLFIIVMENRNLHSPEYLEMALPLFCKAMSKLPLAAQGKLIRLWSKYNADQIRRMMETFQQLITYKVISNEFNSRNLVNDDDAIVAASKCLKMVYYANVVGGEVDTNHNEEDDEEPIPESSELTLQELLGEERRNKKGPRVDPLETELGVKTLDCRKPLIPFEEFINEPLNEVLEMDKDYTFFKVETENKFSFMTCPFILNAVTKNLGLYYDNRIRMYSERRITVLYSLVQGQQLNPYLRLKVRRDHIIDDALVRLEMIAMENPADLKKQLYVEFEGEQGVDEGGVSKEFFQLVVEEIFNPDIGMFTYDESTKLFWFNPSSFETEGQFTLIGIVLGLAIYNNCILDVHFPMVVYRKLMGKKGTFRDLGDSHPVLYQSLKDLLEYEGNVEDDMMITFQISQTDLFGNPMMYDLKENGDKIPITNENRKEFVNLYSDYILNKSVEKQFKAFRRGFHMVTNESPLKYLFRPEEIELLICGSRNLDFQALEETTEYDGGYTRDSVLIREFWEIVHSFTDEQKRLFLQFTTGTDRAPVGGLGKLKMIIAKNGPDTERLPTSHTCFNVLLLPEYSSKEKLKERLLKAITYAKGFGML

[2] = biological target: T1, full-length human E6AP (C-terminal …); test: SPR; settings: both partners purified

| Binder | unmodified E6AP remaining at 30 min, E6AP autoubiquitination [1] [%] | unmodified p53 remaining at 30 min, in vitro ubiquitination of full-length p53 [1] [%] | Kd [2] [nM] | unmodified E6AP remaining after 30 min, E6AP autoubiquitination [1] [%] |
| --- | --- | --- | --- | --- |
| B1 | 82 | 59.5 | 8.5 |  |
| B2 | 33.1 | 57.3 | 1.71 |  |
| B3 |  |  | 195 | 64.9 |
| B4 | 21.6 | 22.4 | 0.742 |  |
| B5 |  |  | 34.4 | 64.9 |
| B6 | 21.2 | 19.2 | 5.4 |  |
| B7 |  |  | 2.2 | 9.3 |
| B8 |  |  |  | 45.6 |
| B9 | 56.5 | 44.2 | 6.3 |  |
